This is an account of results in IntAct's records for PubMed 23217712.

The target of test [1] is pcl2_yeast PCL2 (UniProt P25693).
Test [2] concerns the target cg13_yeast CLN3 (UniProt P13365).
Test [3] has as its target clg1_yeast CLG1 (UniProt P35190).

pcl2_yeast PCL2, sequence (P25693 whole entry): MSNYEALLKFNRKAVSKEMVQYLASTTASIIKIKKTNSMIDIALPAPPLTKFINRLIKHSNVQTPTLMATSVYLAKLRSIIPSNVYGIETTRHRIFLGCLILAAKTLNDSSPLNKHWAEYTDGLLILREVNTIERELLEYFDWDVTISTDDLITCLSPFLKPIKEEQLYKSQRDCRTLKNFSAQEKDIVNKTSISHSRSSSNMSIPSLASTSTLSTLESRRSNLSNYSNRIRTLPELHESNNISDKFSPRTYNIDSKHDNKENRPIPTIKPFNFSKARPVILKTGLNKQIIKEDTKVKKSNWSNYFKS
clg1_yeast CLG1, sequence (P35190 whole entry): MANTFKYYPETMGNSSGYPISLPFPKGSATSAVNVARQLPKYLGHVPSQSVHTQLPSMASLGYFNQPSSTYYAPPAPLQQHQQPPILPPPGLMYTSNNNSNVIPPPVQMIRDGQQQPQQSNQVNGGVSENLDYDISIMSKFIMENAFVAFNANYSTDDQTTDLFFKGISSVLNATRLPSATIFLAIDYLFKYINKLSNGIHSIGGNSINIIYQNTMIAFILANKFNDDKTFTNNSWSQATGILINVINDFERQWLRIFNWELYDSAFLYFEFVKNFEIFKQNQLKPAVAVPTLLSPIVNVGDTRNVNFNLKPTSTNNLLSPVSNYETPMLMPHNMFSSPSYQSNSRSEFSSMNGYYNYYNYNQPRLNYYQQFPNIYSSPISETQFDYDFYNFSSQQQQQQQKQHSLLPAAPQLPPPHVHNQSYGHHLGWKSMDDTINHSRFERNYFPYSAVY
cg13_yeast CLN3, sequence (P13365 whole entry): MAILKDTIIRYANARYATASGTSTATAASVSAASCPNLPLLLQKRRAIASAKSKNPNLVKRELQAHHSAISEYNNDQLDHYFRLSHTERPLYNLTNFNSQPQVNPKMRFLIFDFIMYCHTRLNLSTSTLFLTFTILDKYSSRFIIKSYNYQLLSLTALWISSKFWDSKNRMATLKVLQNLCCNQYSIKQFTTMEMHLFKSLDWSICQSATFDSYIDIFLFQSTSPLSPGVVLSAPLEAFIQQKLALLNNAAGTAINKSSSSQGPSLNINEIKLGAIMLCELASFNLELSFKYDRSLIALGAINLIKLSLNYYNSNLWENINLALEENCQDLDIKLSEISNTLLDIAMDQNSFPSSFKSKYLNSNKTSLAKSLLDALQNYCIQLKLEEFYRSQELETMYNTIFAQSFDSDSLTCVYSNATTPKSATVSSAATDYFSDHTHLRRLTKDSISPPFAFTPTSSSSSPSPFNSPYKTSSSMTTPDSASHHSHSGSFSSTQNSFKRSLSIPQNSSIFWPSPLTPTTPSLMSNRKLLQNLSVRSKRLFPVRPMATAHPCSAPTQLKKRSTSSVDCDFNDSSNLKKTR

In the case of “Heat shock protein SSA1 (Saccharomyces cerevisiae), P10591 T36A”, the “effect of a mutation on the interaction” value in test [1] is “increasing interaction strength”; in test [2], “disrupting interaction strength”; in test [3], “increasing interaction strength”.

“Heat shock protein SSA1 (Saccharomyces cerevisiae), P10591 T36E”: the “effect of a mutation on the interaction” value in test [1] and in test [3] was “decreasing interaction strength” throughout.
